From patent publication US20100291188A1, “Periostin Inhibitory Compositions for Myocardial Regeneration, Methods of Delivery, and Methods of Using Same” (MUSC FOUNDATION FOR RESEARCH DEVELOPMENT, priority 2008, published 2010)
Entries after “also recorded” stand apart in the source; their conditions may differ.

Columns and labels:
[1] = tested on: Mesenchyme from periostin null mice; assay: Hanging drop culture of periostin null mesenchyme with purified periostin protein, Western analysis for collagen I; type: cell-based, mouse; settings: 7 days, purified periostin protein 10 µg/ml vs PBS
Protocol: FIG. C-4: Periostin regulates collagen I synthesis. Mesenchyme from periostin null mice were placed in hanging drop cultures and incubated with either purified periostin protein (10 µg/ml) or PBS. Mesenchyme from wild-type mice were used as control tissues. After 7 days, tissues were analyzed for periostin and collagen expression by Western analysis. […] Actin is used for protein normalization (B) Graphical representation of Western analyses presented in panel A obtained from densitometric analyses using NIH image software. Values obtained were compared against wild-type values (baseline) and represented as relative percent change. * denotes p<0.05
To further determine the potential for periostin to affect fibroblast differentiation, we compared mesenchymal cells isolated from periostin null and wild-type mice, in addition to performing “rescue” experiments. For this study, we isolated atrioventricular mesenchyme from E12.5 periostin null and wild-type mice and placed them in hanging drop cultures for 7 days. In addition, purified protein was added to a subset of the hanging drops to determine the ability to rescue any defects observed in marker expression. After 7 days, the hanging drops were collected, lysed and Western analyses were performed for the fibroblast markers collagen I[…]I, and I[…]2. […]

[2] = tested on: wild-type fibroblast; assay: Fibroblast migration on periostin and collagen coated dishes; type: cell-based; settings: varying amounts of periostin and collagen coated on dishes
Protocol: FIG. D-2: Varying amounts of periostin and collagen coated dishes were assayed for their ability to promote wild-type fibroblast migration.
A final additional approach to be considered for this aim involves alternative migration assays. Scratch assays are a standard two-dimensional in vitro “wounding” assay whereby a small scratch is introduced into a confluent monolayer of cells and the time the cells take to invade and fill in the empty area provides a measure of migration^78. Thus, these assays will be employed to assess the 2-dimensional migratory capabilities of the “unidentified cells”. The time it takes for “unidentified” cells to fill the gap will be compared to that of wild-type cardiac fibroblasts. Preliminary data on fibroblasts has been previously performed and serves as a benchmark for comparison (FIG. D-2). This 2-D culture assay will serve as a nice complement to the 3-D migration and invasion assay proposed in Experiment 2.

B1: purified periostin protein: purified periostin protein, 90 kDa secreted matricellular protein; added to culture medium or coated on dishes (protein, UniProt Q15063 22-836, looked up)
Periostin: NNHYDKILAHSRIRGRDQGPNVCALQQILGTKKKYFSTCKNWYKKSICGQKTTVLYECCPGYMRMEGMKGCPAVLPIDHVYGTLGIVGATTTQRYSDASKLREEIEGKGSFTYFAPSNEAWDNLDSDIRRGLESNVNVELLNALHSHMINKRMLTKDLKNGMIIPSMYNNLGLFINHYPNGVVTVNCARIIHGNQIATNGVVHVIDRVLTQIGTSIQDFIEAEDDLSSFRAAAITSDILEALGRDGHFTLFAPTNEAFEKLPRGVLERIMGDKVASEALMKYHILNTLQCSESIMGGAVFETLEGNTIEIGCDGDSITVNGIKMVNKKDIVTNNGVIHLIDQVLIPDSAKQVIELAGKQQTTFTDLVAQLGLASALRPDGEYTLLAPVNNAFSDDTLSMDQRLLKLILQNHILKVKVGLNELYNGQILETIGGKQLRVFVYRTAVCIENSCMEKGSKQGRNGAIHIFREIIKPAEKSLHEKLKQDKRFSTFLSLLEAADLKELLTQPGDWTLFVPTNDAFKGMTSEEKEILIRDKNALQNIILYHLTPGVFIGKGFEPGVTNILKTTQGSKIFLKEVNDTLLVNELKSKESDIMTTNGVIHVVDKLLYPADTPVGNDQLLEILNKLIKYIQIKFVRGSTFKEIPVTVYTTKIITKVVEPKIKVIEGSLQPIIKTEGPTLTKVKIEGEPEFRLIKEGETITEVIHGEPIIKKYTKIIDGVPVEITEKETREERIITGPEIKYTRISTGGGETEETLKKLLQEEVTKVTKFIEGGDGHLFEDEEIKRLLQGDTPVRKLQANKKVQGSRRRLREGRSQ
In the case of B1, the “collagen I expression (collagen Iα1 and Iα2, Western analysis)” value [1] is reported as “rescued; also recorded: induces expression of collagen I[…]1 and I[…]2”, the “collagen I expression (collagen Iα1 and Iα2, Western analysis)” value ([1]; listed as purified protein) is reported as “reactivation of collagen isoforms” and the fibroblast migration [2] is reported as “titrating affect of periostin in combination with collagen to stimulate migration”.
